From patent publication US6602992B1, “Mammalian prestin polynucleotides” (Northwestern University, priority 2000, dated 2003)

Experiments:
[1] = target: T1, prestin (Meriones unguiculatus, UniProt Q9JKQ2); settings: 10 millimolar in external bathing solution, FIG. 6C
T1 sequence (Q9JKQ2 1-744): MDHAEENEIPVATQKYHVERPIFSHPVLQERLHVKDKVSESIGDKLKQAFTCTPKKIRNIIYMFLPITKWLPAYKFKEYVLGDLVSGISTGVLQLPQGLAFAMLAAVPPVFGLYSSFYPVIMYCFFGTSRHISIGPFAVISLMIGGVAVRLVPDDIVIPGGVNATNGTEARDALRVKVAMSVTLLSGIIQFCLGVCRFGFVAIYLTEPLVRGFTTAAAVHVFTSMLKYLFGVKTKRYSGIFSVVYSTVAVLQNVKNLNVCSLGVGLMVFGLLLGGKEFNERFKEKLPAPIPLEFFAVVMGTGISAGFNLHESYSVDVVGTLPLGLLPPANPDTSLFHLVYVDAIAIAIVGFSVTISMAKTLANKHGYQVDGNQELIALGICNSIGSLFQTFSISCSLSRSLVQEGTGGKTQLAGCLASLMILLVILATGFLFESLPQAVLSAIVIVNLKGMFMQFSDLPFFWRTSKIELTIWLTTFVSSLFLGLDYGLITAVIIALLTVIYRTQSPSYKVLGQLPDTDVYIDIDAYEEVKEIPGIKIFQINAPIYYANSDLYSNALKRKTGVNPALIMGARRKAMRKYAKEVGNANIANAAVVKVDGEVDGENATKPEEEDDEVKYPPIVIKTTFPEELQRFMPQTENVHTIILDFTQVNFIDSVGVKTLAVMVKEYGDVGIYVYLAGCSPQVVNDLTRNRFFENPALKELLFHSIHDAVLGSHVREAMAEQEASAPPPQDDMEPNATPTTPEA
Experimental: (§1) TSA201 cells, clones of human embryonic kidney 293 cells that express the simian virus 40 (SV40) large T-antigen in a stable manner, were cultured in DMEM with 5% fetal calf serum, 100 units of penicillin per millilter, and 100 micrograms of streptomycin per milliliters. Cells were plated for 24 hours before calcium phosphate transfection. The transfection reaction mixture contained:
(§2) a) control plasmid, pcDNA3.1; b) 2 micrograms of Pres cDNA plasmid; c) 2 micrograms of Pres cDNA plasmid plus 0.2 micrograms of green fluorescent protein (GFP) plasmid as transfection marker; or d) 2 micrograms of pendrin cDNA plasmid plus 0.2 micrograms GFP plasmid.
(§3) After 24 hours the transfected cells were used for electrophysiological and physical measurements.
TSA201 cells were drawn into a microchamber with gentle suction (FIG. 6A). The microchamber was mounted on a three-dimensional micromanipulator attached to the stage of a Zeiss inverted microscope. […] The command voltage, delivered between the electrolyte solutions (L15, Gibco BRL) surrounding and filling the microchamber, produces different voltage drops on the included and excluded cell membrane segments, determined by the electrical voltage-divider effect of these membranes. During motility measurements, the location of the cell within the slit was monitored via a video camera placed behind the slit. […]

[2] = target: T1, prestin
Experimental: as §1, §2, §3
Whole-cell voltage-clamp recordings were made with an Axopatch™ 200B amplifier (Axon Instruments, Foster City, Calif.) Recording pipettes had open tip resistances of 2-3 megaohms and were filled with internal solution containing 140 millimolar CsCl, 2 millimolar MgCl2, 10 millimolar EGTA, and 10 millimolar HEPES at pH 7.2. The external solution contained: 120 millimolar NaCl, 20 millimolar TEA-Cl, 2 millimolar CoCl2, 2 millimolar MgCl2, 10 millimolar HEPES, and 5 millimolar glucose at pH 7.2. Osmolarity was adjusted to 300 milliosmolar per liter with glucose. Capacitive currents were filtered at 5 kilohertz and digitized at 50 kilohertz using pClamp 7.0 software (Axon Instruments).
Voltage-dependent capacitance was measured using two methods. First, a standard P/4 linear subtraction procedure was employed to detect the presence of nonlinear charge movement. After nonlinear transient current was detected, a stair-step voltage protocol was used to obtain the parameters of charge movement. For each voltage step, the measured membrane capacitance (Cm) was plotted as a function of membfane voltage (Vm) and fitted with the derivative of a Boltzmann function: [formula] […]

[3] = tested on: TSA201 cells; assay: Nonlinear capacitance / charge movement conveyed to transiently transfected TSA201 cells; type: cell-based, human; parameters: average charge density: unit not given here; settings: for nonlinear capacitance: co-transfected with GFP
Experimental: The transfection reaction mixture contained:
Voltage-dependent capacitance was measured using two methods.
To test the sensor-motor function of prestin, voltage-dependent charge movement was measured in TSA201 cells after transient transfection of unmodified, native Pres cDNA. A second plasmid (pEGFP-N2) containing GFP cDNA was used as an independent marker for successful transfection of the cells. Transfection efficiency was 30-40% as judged from the fluorescence of GFP in transfected cells. […] In experiments conducted on cells co-transfected with prestin and GFP cDNA, transient capacitive currents were obtained from 91.8% of the GFP positive cells. […] The capacitive currents were directed towards the outside as the membrane potential was depolarized and toward the inside as it was hyperpolarized. Charges transferred at command onset and offset were approximately equal. The decay of transient currents was rapid (100-200 microseconds) and could be well-fitted with a single exponential. The voltage protocol used to estimate membrane capacitance and charge transfer across the membrane was an ascending stair-step voltage waveform (FIG. 5B). The membrane capacitance was fitted to the derivative of a first-order Boltzmann equation (FIG. 5C). In a group of seven cells, these curve-fits yielded values of Qmax=1.76±0.20 pC, V1/2=−57.30 ±2.98 mV, 1/a˜=kT/ze=28.00±2.13 mV, and Clin=20.50±2.65 pF, respectively (mean±SEM). The valence can be calculated from a, z=0.91. The average charge density, a possible measure of transiently transfected motor protein density in TSA201 cells, was […]. The numerical values that characterize the charge movement (V1/2, z) are quite similar to those obtained for OHCs. The maximum charge and charge density are less in the transfected cells, even though the linear capacitance is about the same as that of an average OHC. […]

[4] = tested on: TSA201 cells; assay: Electromotility conveyed to transfected TSA201 cells (microchamber); type: cell-based, human; settings: cells drawn into microchamber, 200 Hertz sinusoid
From the text: A change of photocurrent signified cell extension or contraction.

[5] = Boltzmann fit, seven cells, mean±SEM

O=C([O-])c1ccccc1O.[Na+] [Sodium salicylate, sodium salicylate]
effect on electromotile response [1]: reversible decrease in the electromotile response | effect on charge movement [2]: reversibly blocks charge movement | transient currents after recovery, % of control ([2]; 3 cells, after 2-5 minutes of washing in normal extracellular solution without sodium salicylate): 88.4±8.8 % of control | transient currents, % of control ([2]; 10 millimolar sodium salicylate applied locally, mean±SEM): 15.5±2.9 % of control

B1: human pendrin: chloride-iodide transport protein homologous to prestin, expressed from cDNA as specificity control (protein, UniProt O43511 1-780, looked up)
Pendrin: MAAPGGRSEPPQLPEYSCSYMVSRPVYSELAFQQQHERRLQERKTLRESLAKCCSCSRKRAFGVLKTLVPILEWLPKYRVKEWLLSDVISGVSTGLVATLQGMAYALLAAVPVGYGLYSAFFPILTYFIFGTSRHISVGPFPVVSLMVGSVVLSMAPDEHFLVSSSNGTVLNTTMIDTAARDTARVLIASALTLLVGIIQLIFGGLQIGFIVRYLADPLVGGFTTAAAFQVLVSQLKIVLNVSTKNYNGVLSIIYTLVEIFQNIGDTNLADFTAGLLTIVVCMAVKELNDRFRHKIPVPIPIEVIVTIIATAISYGANLEKNYNAGIVKSIPRGFLPPELPPVSLFSEMLAASFSIAVVAYAIAVSVGKVYATKYDYTIDGNQEFIAFGISNIFSGFFSCFVATTALSRTAVQESTGGKTQVAGIISAAIVMIAILALGKLLEPLQKSVLAAVVIANLKGMFMQLCDIPRLWRQNKIDAVIWVFTCIVSIILGLDLGLLAGLIFGLLTVVLRVQFPSWNGLGSIPSTDIYKSTKNYKNIEEPQGVKILRFSSPIFYGNVDGFKKCIKSTVGFDAIRVYNKRLKALRKIQKLIKSGQLRATKNGIISDAVSTNNAFEPDEDIEDLEELDIPTKEIEIQVDWNSELPVKVNVPKVPIHSLVLDCGAISFLDVVGVRSLRVIVKEFQRIDVNVYFASLQDYVIEKLEQCGFFDDNIRKDTFFLTVHDAILYLQNQVKSQEGQGSILETITLIQDCKDTLELIETELTEEELDVQDEAMRTLAS
nonlinear capacitance [3]: None of the GFP-positive cells demonstrated nonlinear capacitance

B2: prestin: gerbil outer hair cell motor protein, 744 amino acids, 81.4 kiloDaltons, SEQ ID NO:1, expressed from Pres cDNA (protein, listed as Meriones unguiculatus)
chain: T1 sequence (Q9JKQ2 1-744)
cells tested showing electromotility [4]: about 22% | 1/a = kT/ze, slope factor [3, 5]: 28.00±2.13 mV | Qmax, maximum charge transfer [3, 5]: 1.76±0.20 pC | V1/2, voltage at which the maximum charge is equally distributed [3, 5]: −57.30 ±2.98 mV | valence z ([3]; calculated from a): 0.91 | cells displaying transient capacitive currents ([3]; cells transfected with Pres alone): 36.8% | GFP positive cells displaying transient capacitive currents ([3]; co-transfected with prestin and GFP cDNA): 91.8% | decay of transient currents ([3]; single exponential): 100-200 microseconds | average charge density ([3]; transiently transfected TSA201 cells): 5360

B3: N-tagged prestin: full-length prestin with an Xpress epitope located upstream and in-frame (protein, UniProt P58743 1-744, looked up)
chain: MDHAEENEILAATQRYYVERPIFSHPVLQERLHTKDKVPDSIADKLKQAFTCTPKKIRNIIYMFLPITKWLPAYKFKEYVLGDLVSGISTGVLQLPQGLAFAMLAAVPPIFGLYSSFYPVIMYCFLGTSRHISIGPFAVISLMIGGVAVRLVPDDIVIPGGVNATNGTEARDALRVKVAMSVTLLSGIIQFCLGVCRFGFVAIYLTEPLVRGFTTAAAVHVFTSMLKYLFGVKTKRYSGIFSVVYSTVAVLQNVKNLNVCSLGVGLMVFGLLLGGKEFNERFKEKLPAPIPLEFFAVVMGTGISAGFNLKESYNVDVVGTLPLGLLPPANPDTSLFHLVYVDAIAIAIVGFSVTISMAKTLANKHGYQVDGNQELIALGLCNSIGSLFQTFSISCSLSRSLVQEGTGGKTQLAGCLASLMILLVILATGFLFESLPQAVLSAIVIVNLKGMFMQFSDLPFFWRTSKIELTIWLTTFVSSLFLGLDYGLITAVIIALLTVIYRTQSPSYKVLGKLPETDVYIDIDAYEEVKEIPGIKIFQINAPIYYANSDLYSNALKRKTGVNPAVIMGARRKAMRKYAKEVGNANMANATVVKADAEVDGEDATKPEEEDGEVKYPPIVIKSTFPEEMQRFMPPGDNVHTVILDFTQVNFIDSVGVKTLAGIVKEYGDVGIYVYLAGCSAQVVNDLTRNRFFENPALWELLFHSIHDAVLGSQLREALAEQEASAPPSQEDLEPNATPATPEA
modifications: full-length N-terminal Xpress tag
nonlinear capacitance [3]: typical nonlinear capacitance curve is observed

B4: C-tagged prestin: full-length prestin tagged at the C-terminus with a V5 epitope (protein, UniProt P58743 1-744, looked up)
chain: B3 chain
modifications: full-length C-terminal V5 tag
nonlinear capacitance [3]: typical nonlinear capacitance curve is observed
